Laboratory results published in publication PMC2820766 (The Journal of Biological Chemistry, 2009).

Molecular target: the molecule itself
Test: SEC

Row | Protein | stoichiometry N
1 | MscSΔW L105W (W16Y/W240F/W251F/L105W), small mechanosensitive channel MscS-H6 (natural protein) MEDLNVVDSINGAGSYLVANQALLLSYAVNIVAALAIIIVGLIIARMISNAVNRLMISRKIDATVADFLSALVRYGIIAFTLIAALGRVGVQTASVIAVLGAAGWAVGLALQGSLSNLAAGVLLVMFRPFRAGEYVDLGGVAGTVLSVQIFSTTMRTADGKIIVIPNGKIIAGNIINFSREPVRRNEFIIGVAYDSDIDQVKQILTNIIQSEDRILKDREMTVRLNELGASSINFVVRVFSNSGDLQNVYFDVLERIKREFDAAGISFPYPQMDVNFKRVKEDKAA | 7
2 | MscSΔW L105W/A106V (W16Y/W240F/W251F/L105W/A106V), small mechanosensitive channel MscS-H6 (natural protein) MEDLNVVDSINGAGSYLVANQALLLSYAVNIVAALAIIIVGLIIARMISNAVNRLMISRKIDATVADFLSALVRYGIIAFTLIAALGRVGVQTASVIAVLGAAGWVVGLALQGSLSNLAAGVLLVMFRPFRAGEYVDLGGVAGTVLSVQIFSTTMRTADGKIIVIPNGKIIAGNIINFSREPVRRNEFIIGVAYDSDIDQVKQILTNIIQSEDRILKDREMTVRLNELGASSINFVVRVFSNSGDLQNVYFDVLERIKREFDAAGISFPYPQMDVNFKRVKEDKAA | 7
